The text below walks through data of patent US20200317768A1 (published 2020).

The target of assay [1] is T1, cynomolgus monkey FcγRIIIaS extracellular domain, C-terminal His-tag (cynomolgus monkey, UniProt A3RFZ7 21-206 (rhesus entry)).
T1 construct: also called cyno FcγRIIIaS; cynoFcγRIIIaS; not shown: His-tag added to C-terminus
Nature of the assay: SPR (Biacore), KD of SG1 / KD of variant.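 Further: relative to parent M103205H795-SG1 carrying the SG1 human heavy chain constant region.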 Background: Surface plasmon resonance follows binding to a sensor surface in real time, without labels.

In assay [2] the target is T2, human FcγRIIaH extracellular domain, C-terminal His-tag (human, UniProt P12318 34-217).
T2 construct: also called human FcγRIIa (type H); FcgRIIaH; not shown: His-tag added to C-terminus
T2 sequence: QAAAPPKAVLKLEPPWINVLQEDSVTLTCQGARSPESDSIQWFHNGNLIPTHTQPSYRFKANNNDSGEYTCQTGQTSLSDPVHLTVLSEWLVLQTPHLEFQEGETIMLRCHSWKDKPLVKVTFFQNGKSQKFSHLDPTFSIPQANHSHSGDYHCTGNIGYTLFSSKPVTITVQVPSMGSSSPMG
Nature of the assay: SPR (Biacore), antibody captured, FcgR analyte, 25 C.

In assay [3] the target is T3, human FcγRIIaR extracellular domain, C-terminal His-tag (human, UniProt P12318 34-217).
T3 construct: also called human FcγRIIa (type R); FcgRIIaR; not shown: His-tag added to C-terminus
T3 chain: T2 sequence with H134R
Described as above.

Assay [4] addresses T1, cynomolgus monkey FcγRIIIaS …. The assay is described as above.
Assay [5] addresses T4, human FcγRIIb extracellular domain, C-terminal His-tag (human, UniProt P31994 43-217).
T4 construct: also called FcgRIIb (human); not shown: His-tag added to C-terminus
T4 sequence: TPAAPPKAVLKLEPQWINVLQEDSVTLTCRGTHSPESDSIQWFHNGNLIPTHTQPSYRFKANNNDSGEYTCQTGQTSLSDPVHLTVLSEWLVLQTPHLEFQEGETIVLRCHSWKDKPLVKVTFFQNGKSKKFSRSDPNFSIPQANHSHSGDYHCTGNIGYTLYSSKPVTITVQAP
Described as above.

Assay [6] deals with T5, cynomolgus monkey FcγRIIa1 extracellular domain, C-terminal His-tag (cynomolgus monkey).
T5 construct: also called cyno FcγRIIa1; cynoFcgRIIa1; not shown: His-tag added to C-terminus
T5 chain: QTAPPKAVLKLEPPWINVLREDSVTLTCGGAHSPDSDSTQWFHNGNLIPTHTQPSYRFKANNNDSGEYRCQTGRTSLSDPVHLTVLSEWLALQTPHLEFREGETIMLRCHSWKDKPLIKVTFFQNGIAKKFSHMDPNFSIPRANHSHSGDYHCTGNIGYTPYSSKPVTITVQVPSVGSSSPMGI
The description is as above.

The target in assay [7] is T6, cynomolgus monkey FcγRIIb extracellular domain, C-terminal His-tag (cynomolgus monkey).
T6 construct: also called cyno FcγRIIb; cynoFcγRIIb; not shown: His-tag added to C-terminus
T6 chain: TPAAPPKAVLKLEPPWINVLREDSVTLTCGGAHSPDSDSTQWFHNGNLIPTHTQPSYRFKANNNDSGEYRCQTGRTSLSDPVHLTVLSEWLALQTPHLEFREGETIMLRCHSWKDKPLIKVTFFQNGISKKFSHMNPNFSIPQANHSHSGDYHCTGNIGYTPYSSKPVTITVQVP
The description is as above.

Assay [8] deals with T7, cynomolgus monkey FcγRIIa3 extracellular domain, C-terminal His-tag (cynomolgus monkey).
T7 construct: also called cyno FcγRIIa3; cynoFcgRIIa3; not shown: His-tag added to C-terminus
T7 chain: T5 chain with P95T, T121A, A128S, H133P, D135N
The description is as above.

Assay [9] addresses T8, human FcγRIIIaV extracellular domain, C-terminal His-tag (human, UniProt P08637 17-208).
T8 construct: also called FcgRIIIaV; not shown: His-tag added to C-terminus
The description is as above.

Numbering of substitutions follows the chain as printed.

T8 sequence (P08637 17-208 F176V): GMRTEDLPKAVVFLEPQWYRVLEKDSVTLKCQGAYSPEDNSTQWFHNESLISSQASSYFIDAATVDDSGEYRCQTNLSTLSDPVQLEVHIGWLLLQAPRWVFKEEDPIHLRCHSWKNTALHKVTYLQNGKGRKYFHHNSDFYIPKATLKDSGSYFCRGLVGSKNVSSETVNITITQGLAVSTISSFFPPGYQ
T1 sequence (A3RFZ7 21-206): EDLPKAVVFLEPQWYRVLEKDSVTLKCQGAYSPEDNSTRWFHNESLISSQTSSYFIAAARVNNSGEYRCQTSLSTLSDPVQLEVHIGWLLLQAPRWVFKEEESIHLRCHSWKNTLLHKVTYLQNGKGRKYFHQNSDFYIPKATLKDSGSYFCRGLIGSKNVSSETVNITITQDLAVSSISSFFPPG

B1: M103205H795-MY273/M103202L889-SK1 (antibody, human IgG1, kappa)
heavy: QVTLKESGPVLVKPTETLTLTCTVSGIDLSHDDISWVRQAPGKGLEWVGIISYAGSTYYASWAKGRLTISKDTSKNQVVLTMTNMDPVDTATYYCARGVPAYSHGGDLWGQGTLVTVSSASTKGPSVFPLAPSSKSTSGGTAALGCLVKDYFPEPVTVSWNSGALTSGVHTFPAVLQSSGLYSLSSVVTVPSSSLGTQTYICNVNHKPSNTKVDKKVEPKSCDKTHTCPPCPAPELLLGPSVFLFPPKPKDTLMISRTPEVTCVVVDVSDEDPEVKFNWYVDGVEVHNAKTKPREEQYNSTYRVVSVLTVLHQDWLNGKEYKCKVSNKALPKPIEKTISKAKGQPREPQVYTLPPSREEMTKNQVSLTCLVKGFYPSDIAVEWESNGQPENNYKTTPKVLDSDGSFFLYSKLTVDKSRWQQGNVFSCSVMHEALHNHYTQKSLSLSP
light: DIVMTQSPATLSLSPGERATLSCTSSQSVYHANWLSWFQQKPGQPPKLLIYWASTLAYGVPSRFSGSGSGTDFTLTISSLQPEDAATYYCAGGYGGGRYAFGQGTKVEIKRTVAAPSVFIFPPSDEQLKSGTASVVCLLNNFYPREAKVQWKVDNALQSGNSQESVTEQDSKDSTYSLSSTLTLSKADYEKHKVYACEVTHQGLSSPVTKSFNRGEC
Take B1: in [1], the “KD fold (SG1 = 1)” value was 0.21 fold. Further, the Kd (in general, the constant that tells how readily two partners part at equilibrium) in assay [2] came out at 510 nM; in [3], 1000 nM; in assay [4], 1700 nM; in assay [5], 3000 nM; in [6], 3700 nM; in assay [7] it was 1200 nM. Also, the Kd is 11000 nM in assay [8] and 9700 nM in [9].

B2: M103205H795-MY279/M103202L889-SK1 (antibody, human IgG1, kappa)
heavy: B1 heavy with L238H, Q297L, K398P
light: B1 light
Turning to B2, the “KD fold (SG1 = 1)” value in assay [1] came to 0.15 fold. Further, the dissociation constant Kd in [2] is 140 nM; in assay [3] it was 720 nM; in assay [4], 2400 nM; in [5], 4600 nM; in assay [6] it was 2800 nM; in assay [7] it was 910 nM. For the same molecule, the figures for the Kd in [8] and in [9] were 4700 nM and 7000 nM, respectively.

B3: M103205H795-MY280/M103202L889-SK1 (antibody, human IgG1, kappa)
heavy: B1 heavy with L238V, Q297L, K398P
light: B1 light
In the case of B3, the “KD fold (SG1 = 1)” value in assay [1] came to 0.2 fold. Further, the equilibrium dissociation constant (Kd) was 81 nM in assay [2]; 450 nM in [3]; 1800 nM in assay [4]; 2900 nM in assay [5]; 1000 nM in [6]; 330 nM in assay [7]. The dissociation constant Kd amounted to 4600 nM in [8] and 4400 nM in assay [9].

B4: M103205H795-MY274/M103202L889-SK1 (antibody, human IgG1, kappa)
heavy: B1 heavy with L238T
light: B1 light
Take B4: in [1], the “KD fold (SG1 = 1)” value came to 0.58 fold. Also, the Kd was determined as 8100 nM in assay [2]; 170 nM in assay [3]; 670 nM in assay [4]; 950 nM in [5]; 830 nM in [6]; 230 nM in assay [7]. Besides, the values for the Kd in assay [8] and in assay [9] were 2000 nM and 2500 nM, respectively.

B5: M103205H795-MY278/M103202L889-SK1 (antibody, human IgG1, kappa)
heavy: B1 heavy with L238M, Q297L, K398P
light: B1 light
B5: the “KD fold (SG1 = 1)” value in [1] was 0.49 fold. In addition, the Kd in assay [2] turned out to be 530 nM; in assay [3], 1300 nM; in assay [4], 740 nM; in assay [5], 4400 nM; in assay [6] it was 3000 nM; in assay [7] it was 1300 nM. Besides, the values for the Kd in [8] and in assay [9] were 10000 nM and 3400 nM, respectively.

B6: M103205H795-MY308/M103202L889-SK1 (antibody, human IgG1, kappa)
heavy: B1 heavy with L238T, D270E, K398P
light: B1 light
As to B6, the “KD fold (SG1 = 1)” value in assay [1] was 0.16 fold. For the same molecule, the Kd amounted to 450 nM in assay [2]; 360 nM in [3]; 2900 nM in assay [4]; 4100 nM in [5]; 3900 nM in assay [6]; 1300 nM in [7]. Moreover, the figures for the Kd in assay [8] and in assay [9] were 1100 nM and 8300 nM, respectively.

B7: M103205H795-MY309/M103202L889-SK1 (antibody, human IgG1, kappa)
heavy: B1 heavy with L238T, D270E, K398M
light: B1 light
As for B7, the “KD fold (SG1 = 1)” value in assay [1] is 0.3 fold. Besides, the Kd in assay [2] worked out at 140 nM; in assay [3], 260 nM; in assay [4], 1200 nM; in [5], 1600 nM; in [6], 3500 nM; in assay [7] it was 710 nM. Besides, the Kd was found to be 7000 nM in [8] and 4300 nM in [9].

B8: M103205H795-MY293/M103202L889-SK1 (antibody, human IgG1, kappa)
heavy: B1 heavy with L238G, G239Y, D270E, Q297L
light: B1 light
For the molecule B8, the “KD fold (SG1 = 1)” value in assay [1] amounted to 0.05 fold. The equilibrium dissociation constant (Kd) in assay [2] was 1300 nM; in assay [3], 73 nM; in assay [4], 4200 nM; in assay [5] it was 150 nM; in assay [6], 2300 nM; in [7] it was 860 nM. The results for the Kd in assay [8] and in assay [9] were 3900 nM and 39000 nM, respectively.

B9: M103205H795-MY292/M103202L889-SK1 (antibody, human IgG1, kappa)
heavy: B1 heavy with L238G, G239Y, Q297L, K398M
light: B1 light
For the molecule B9, the “KD fold (SG1 = 1)” value in assay [1] stood at 0.05 fold. The dissociation constant Kd turned out to be 950 nM in [2]; 76 nM in assay [3]; 4000 nM in [4]; 140 nM in [5]; 1500 nM in assay [6]; 430 nM in [7]. The dissociation constant (Kd) in assay [8] was 2200 nM; in assay [9], 28000 nM.

B10: M103205H795-MY281/M103202L889-SK1 (antibody, human IgG1, kappa)
heavy: B1 heavy with L238Q, Q297L, K398P
light: B1 light
For the molecule B10, the “KD fold (SG1 = 1)” value in assay [1] amounted to 0.49 fold. Further, the Kd was found to be 130 nM in [2]; 390 nM in assay [3]; 740 nM in [4]; 1800 nM in assay [5]; 1900 nM in [6]; 620 nM in assay [7]. Further, the dissociation constant Kd in [8] was 9100 nM; in assay [9] it was 2100 nM.

B11: M103205H795-MY276/M103202L889-SK1 (antibody, human IgG1, kappa)
heavy: B1 heavy with L238I
light: B1 light
On to B11, for which the “KD fold (SG1 = 1)” value in [1] is 0.3 fold. The Kd came to 53 nM in [2]; 250 nM in assay [3]; 1200 nM in assay [4]; 2400 nM in assay [5]; 1100 nM in assay [6]; 310 nM in [7]. Also, the dissociation constant (Kd) came to 4300 nM in assay [8] and 5700 nM in assay [9].
